Data set [1] concerns porcine IgG. The experiment in a line: IgG cleavage by IgdE, SDS-PAGE. The format is biochemical, pig. As to conditions: purified polyclonal IgG, reducing SDS-PAGE. The protocol:
(A) Schematic illustration of IgdE and the different rIgdE constructs with potential active site residues substitutions and the C-terminal truncation variant. The secretion signal peptide (residues 1-37) is marked in light grey, the transglutaminase domain is boxed and the potential active site residues and substitutions are indicated. (B) 3.3 μM porcine IgG was incubated for 16 h at 37° C. with soluble fractions of E. coli cells expressing different rIgdE constructs. The reaction was analyzed SDS-PAGE under reducing conditions. […] The weak protein band of 37 kDa is a contaminant present in lysate preparation and not related to IgdE activity.
(§1) 0.5 mg/ml of porcine IgG (Sigma) in PBS or of other species (human, goat, cow, horse and mouse; all Sigma) were incubated with either crude extracts of induced E. coli carrying S. suis IgdE constructs mentioned above or 10 nM purified rIgdE for 16 h at 37° C. prior subjection to SDS-PAGE under either reducing or non-reducing conditions.
(§2) Samples for SDS-PAGE were prepared with either reducing or non-reducing sample buffer and heated to 95° C. for 5 min. 12% SDS-PAGE was either stained with Coomassie blue (Sigma), Coomassie Fluor™ Orange Protein Gel Stain (Invitrogen) or blotted to Hybond-P PVDF membrane (GE Healthcare) for western blot analyses. Membranes were blocked with 5% dry milk powder in 0.1% PBS-Tween, followed by incubation with horse-radish peroxidase conjugated antibodies. Goat anti-pig IgG-HRP (Thermo Scientific) and goat anti-porcine IgM-HRP (Thermo Scientific) was diluted 1:25′000 and goat anti-porcine IgA-HRP (Thermo Scientific) was diluted 1:12′500. Membranes were thoroughly washed with 0.1% PBS-Tween prior to development with Amersham ECL Select Western blotting detection reagent (GE Healthcare) according to manufactures instruction and pictured by LAS4000 imaging system (Fujifilm).

For another data set, the system named is human IgG. The experiment in a line: IgG cleavage by IgdE, SDS-PAGE. The format is biochemical. As to conditions: purified polyclonal IgG, reducing SDS-PAGE. The method, then: (A) rIgdEagalactiae was incubated with polyclonal IgG of six different species for 18 h at 37° C. and analyzed by SDS-PAGE under reducing conditions. Degradation products are indicated by asterisks (*). Images of different gels have been used to create the figure. (B) rIgdEagalactiae was incubated with human or bovine serum for 18 h in 37° C. and analyzed by SDS-PAGE under reducing conditions. Degradation products are indicated by asterisks (*). (C) Western Blot with crude extracts of rIgdEagalactiae incubated with human and porcine serum for 18 h in 37° C. Membrane was treated with antibodies against human and porcine polyclonal IgG respectively. Degradation products are indicated by asterisks (*). (D) rIgdEagalactiae was incubated with subclasses of human IgG as well as human IgA and IgM for 18 h in 37° C. and analyzed by SDS-PAGE under reducing conditions. Degradation products are indicated by asterisks (*). Images of different gels have been used to create the figure.
as §1, §2

The next data set concerns cow IgG. Nature of the data set: IgG cleavage by IgdE, SDS-PAGE. The format is biochemical. As to conditions: purified polyclonal IgG, reducing SDS-PAGE. The method, then:
as §1, §2

In a further data set the test system is goat IgG. The experiment in a line: IgG cleavage by IgdE, SDS-PAGE. The format is biochemical. As to conditions: purified polyclonal IgG, reducing SDS-PAGE. The protocol:
as §1, §2

Another data set deals with horse IgG. The experiment in a line: IgG cleavage by IgdE, SDS-PAGE. The format is biochemical. As to conditions: purified polyclonal IgG, reducing SDS-PAGE. The method, then: as §1, §2
The next data set has as its system mouse IgG. The experiment in a line: IgG cleavage by IgdE, SDS-PAGE. As to conditions: purified polyclonal IgG, reducing SDS-PAGE. Format: biochemical. The method, then:
as §1, §2

Data set [2] relates to porcine IgG. The experiment in a line: Ig cleavage in porcine plasma or serum, anti-IgG Western blot. Format: biochemical, pig. The method, then: (§3) (A) 2% porcine plasma was incubated with (+) or without (−) 10 nM purified rIgdE.
(§4) The reaction was analyzed by anti-porcine IgG, IgM and IgA Western blots under reducing conditions. Only cleavage of IgG was observed (*). (B) 0.5 mg/ml IgG of different species was incubated with (+) or without (−) 10 nM purified rIgdE and analyzed by SDS-PAGE under reducing conditions. No cleavage of IgG derived from any other species than pig (*) was observed. The weak protein band of 37 kDa is a contaminant present in lysate preparation (see lane 2) and not related to IgdE activity. Images of different gels have been assembled into one figure.
as §2, with “Membranes were thoroughly washed with 0.1% PBS-Tween prior to development with Amersham ECL Select Western blotting detection reagent (GE Healthcare) according to manufactures instruction and pictured by LAS4000 imaging system (Fujifilm).” left out

A further data set concerns porcine IgA. The experiment in a line: Ig cleavage in porcine plasma or serum, anti-IgA Western blot. Format: biochemical, pig. The method, then:
as §3, §4
as §2, with “Membranes were thoroughly washed with 0.1% PBS-Tween prior to development with Amersham ECL Select Western blotting detection reagent (GE Healthcare) according to manufactures instruction and pictured by LAS4000 imaging system (Fujifilm).” left out

Another data set concerns IgG. Nature of the data set: IgG degrading cysteine protease activity: specificity as summarised. As to conditions: summary statement. The format is biochemical. An excerpt:
Typically, polypeptides for use in accordance with the invention display immunoglobulin cysteine protease activity, and in particular IgG degrading cysteine protease activity. Preferably, the polypeptide cleaves IgG in the hinge region and more particularly in the hinge region of the heavy chain. Preferably, cleavage results in production of Fc and Fab fragments of IgG. Preferably the activity is specific for IgG. The IgG degrading cysteine protease activity may be determined by means of a suitable assay. For example, a test polypeptide may be incubated with IgG at a suitable temperature, such as 37° C. The starting materials and the reaction products may then be analysed by SDS PAGE to determine whether the desired IgG cleavage product is present. Typically this cleavage product is a 32 kDa fragment. Typically there is no further degradation of IgG after this first cleavage. The cleavage product may be subjected to N-terminal sequencing to verify that cleavage has occurred in the hinge region of IgG.
The IgG degrading cysteine protease activity of the polypeptides is generally IgG-specific in that the polypeptides may not degrade other classes of Ig, namely IgM, and IgA, when incubated with these immunoglobulins under conditions that permit cleavage of IgG.

B1: IgdEporcinus: IgdE isolated from S. porcinus strain DSM20725, SEQ ID NO: 5 (protein, listed as Streptococcus porcinus)
chain: AVLARENSNSGQLHPEARQIKAVDFQEFSKKLKEEISENQQFHVFKLGMNNYYRSGIRINELNNLATEHDFILVNDHASHKKYDVPHIFIMNKGDVIVPSKEKYDEQMREVKFAGDQPNAQRQRIHALFEIGLDSNKRQLLNAAGLGTAENTLAKVDGFTIYSHGLTVDNKYYEDYIRFNKNENINITKERFTANDNLIHNLITESTAKVQTNDRDKVKAFVMYVANHTIYDWIAANNAVSNISDVNYYLGSDLFSITERKKAMCVGFSTTAARAFNMLGIPAYVVVGKNAQGVDHATARAYYNGKWHTIDGTGFINDKASRSTIYSENHFYSIGEDSYNIVDVNDEQIAFDKNYMKIDKVFEEWAQKQPTADLLLINKDKSLVPSNYVAYVAPVIVDNNRKGSLTQIYQNLKQVMESSSQKASLTSLLNTATADIAKLQTSSQLTQEDYNQIQNSMKSVLSFFWQLDKDSATNFENSEDYKKYLTETKNAGN
Turning to B1, the “cleavage of polyclonal porcine IgG (32 kDa degradation product)” value with porcine IgG [1] is reported as “cleaved”. The “cleavage of polyclonal human IgG (32 kDa degradation product)” value in the data set on human IgG is “No degradation product was observed”. For the same molecule, in the data set on cow IgG, the “cleavage of polyclonal cow IgG” value is given as “No degradation product was observed”. In the data set on goat IgG, the “cleavage of polyclonal goat IgG” value is recorded as “No degradation product was observed”. Besides, the “cleavage of polyclonal horse IgG” value with horse IgG was “No degradation product was observed”. Moreover, in the data set on mouse IgG, the “cleavage of polyclonal mouse IgG” value is given as “No degradation product was observed”. In the data set on porcine IgG [2], the “cleavage of IgG in porcine plasma or serum” value is on record as “cleaved IgG in porcine serum”. The “cleavage of IgA in porcine plasma or serum” value in the data set on porcine IgA is listed as “but not IgM or IgA”. Further, the “immunoglobulin specificity of the IgG degrading cysteine protease activity” value in the data set with IgG is “specific for porcine IgG”.

These data come from patent US12006530B2, “Streptococcal proteases” (priority 2016, dated 2024).
